# Assay results from US20130071400A1, “LINGO binding molecules and Pharmaceutical Use Thereof” (NOVARTIS AG, priority 2006, published 2013).
# Test system: postnatal day 7 rat cerebellar granule neurons (CGN)
# Assay: Neurite outgrowth inhibition assay on spinal cord myelin
# Type: cell-based
# Details: sub-nM concentrations in vitro
# Experimental: A) P7 CGN cells are incubated for 16 hr on wells coated without spinal cord myelin (no SC, white bars) or wells coated with spinal cord myelin in the absence (SC, red bars) or presence of anti-LINGO-1 IgG4 antibodies, a control anti-lysozyme IgG4 antibody 3207 (green bars) or […] of the ROCK inhibitor Y27632 (yellow bar). […] The experiment is performed in three 96 well plates with an SC and no SC condition per plate to which the effects of the antibodies on that plate are compared and mean neurite length per neuron (μm) is calculated for 500 neurons per well in replicates of 10. The percentage inhibition (white text) is calculated as the percentile difference in mean neurite length/neuron between cells plated on wells coated with and without SC. The percentage disinhibition (black italic text) is calculated as the difference in mean neurite length between cells plated on SC in the presence and absence of anti-LINGO-1 antibody as a percentile of the difference between cells plated on wells coated with and without SC. *p<0.05, **p<0.01 (one way ANOVA, Holm-Sidak comparison to mean neurite length/neuron for cells plated on spinal cord myelin in the absence of antibody).
# A) P7 CGN cells are incubated for 8 hr on wells coated without spinal cord myelin (no SC, white bars) or wells coated with spinal cord myelin in the absence (SC, red bars) or presence of anti-LINGO-1 IgG4 antibodies or a control anti-lysozyme IgG4 antibody 3207. The experiment is performed in three 96 well plates with an SC and no SC condition per plate to which the effects of the antibodies on that plate are compared and mean neurite length per neuron (μm) is calculated for 500 neurons per well in replicates of 10. The percentage inhibition (white text) and disinhibition (black italic text) is calculated as above. **p<0.01 (one way ANOVA, Holm-Sidak comparison to mean neurite length/neuron for cells plated on spinal cord myelin in the absence of antibody).
# P7 CGN cells are incubated for 8 hr on wells coated without spinal cord myelin (no SC) or wells coated with spinal cord myelin in the absence (SC) or presence of the indicated concentrations of anti-LINGO-1 IgG4 antibodies 4784 or 4785, a control anti-lysozyme IgG4 antibody 3207 or 1 μM Y27632 (ROCK). The experiment is performed in three 96 well plates with an SC and no SC condition per plate to which the effects of the antibodies on that plate are compared and mean neurite length per neuron (μm) is calculated for 500 neurons per well in replicates of 10. The percentage inhibition (white text) and disinhibition (black italic text) is calculated as above. *p<0.05, **p<0.01 (one way ANOVA, Holm-Sidak comparison to mean neurite length/neuron for cells plated on spinal cord myelin in the absence of antibody). […]
molecule,measurement,value
"IgG4 4785: monoclonal human anti-LINGO-1 IgG4 antibody; VL SEQ ID NO: 6, VH SEQ ID NO: 7 (antibody, V domains shown, IgG4; 4785 VH; 4785 VL) VH: QVQLQQSGPGLVKPSQTLSLTCAISGDSVSDNSAAWSWIRQSPGRGLEWLGLIYLRSKWDNDYAVSVKSRITINPDTSKNQFSLQLNSVTPEDTAVYYCARTGRADEFDVWGQGTLVTVSS VL: DIVLTQPPSVSGAPGQRVTISCSGSSSNIGNNYVSWYQQLPGTAPKLLISRNSKRPSGVPDRFSGSKSGTSASLAITGLQSEDEADYYCSTYDTFSIVFGGGTKLTVLG",attenuation of the neurite outgrowth inhibitory activity of adult rat spinal cord myelin,significantly attenuate
"IgG4 4784: monoclonal human anti-LINGO-1 IgG4 antibody; VL SEQ ID NO: 4, VH SEQ ID NO: 5 (antibody, V domains shown, IgG4; 4784 VH; 4784 VL) VH: QVQLKESGPALVKPTQTLTLTCTFSGFSLSSSGVGVGWIRQPPGKALEWLAHIGSDDDKYYSTSLKTRLTISKDTSKNQVVLTMTNMDPVDTATYYCARNQQYGDGYPGYFDYWGQGTLVTVSS VL: DIELTQPPSVSVAPGQTARISCSGDNIGNYYVYWYQQKPGQAPVLVIYEDTNRPSGIPERFSGSNSGNTATLTISGTQAEDEADYYCQSYDNLHEQVFGGGTKLTVLG",attenuation of the neurite outgrowth inhibitory activity of adult rat spinal cord myelin,significantly attenuate
